Data set [1] can be described thus: chitin RBV assay (chitin hydrolysis). It is filed as biochemical. Particulars: 37° C., 24 hours. The method, then: Chitin RBV assay. Carboxymethyl-substituted chitin labeled covalently with Remazol Brilliant Violet (CM-Chitin-RBV) (Loewe Biochemica, Sauerlach, Germany) was used to measure chitinolytic activity (Wirth S J, Wolf G A, (1992) Soil Biol Biochem v24 p511-519). A solution of 2 mg/ml CM-chitin-RBV (50 μL) was added to hAMCase (AMCase) or mNC (cyno chitintase) in a total volume of 200 μL of buffer (0.2 M citrate phosphate buffer pH 5.0) in 96-well v-bottom plates (Costar Cat. No. 3894 Acton, Mass.). The plates were sealed with low evaporation lids and incubated at 37° C. for 24 hours. The reaction was terminated by the addition of 1 N HCl, causing precipitation of the non-degraded high-polymeric substrate. The plates were cooled on ice for 10 min. and centrifuged (1400 g, 10 min). The supernatants (100 μL) were transferred to 96-well plates (Costar cat. No. 3690) and measured at […] (Molecular devices).
Chitin hydrolysis. We employed the chitin RBV assay, a soluble, dye-labelled and acid-precipitable assay for endo-chitinases to determine if mNC and hAMCase hydrolyze chitin (Wirth S J, Wolf G A (1992) Soil Biol Biochem 24, 511-519). […] The released amount of soluble chitin oligomers was dose-dependent on enzyme concentration (FIG. 16).

Data set [2] is described as follows: pH profile of purified chitinases. It is filed as biochemical. Particulars: for activity at lower pH values: pH 2.0 and 3.5; for pH of maximal activity: pH 2 to pH 8, 5 μM chitobiose-4MU; for slope of the initial rate at the various enzyme concentrations at maximal activity: pH 5.0, 5 μM chitobiose-4MU. How it is done: Analysis of the pH profiles of hAMCase and mNC were performed by incubating various concentrations of purified hAMCase (ranging from 0.05 nM to 50 nM) or mNC (ranging from 0.018 nM to 5 nM) with 5 μM chitobiose-4MU substrate in 0.1 M citrate phosphate buffer containing 0.005% Brij35 prepared at pH 2 to pH 8. The slope of the initial enzyme rate for each of the enzyme concentrations was then compared at each pH. […] The slope of the initial rate at the various enzyme concentrations measured for this maximal activity was 13.1 for mNC and 0.45 for hAMCase. This maximal value was set to 100% for each enzyme and the relative activity, for comparison of the activity at different pH values.

The nature of data set [3]: apparent Km of purified chitinases with increasing chitobiose-4MU. It is filed as biochemical. Particulars: for Km: purified 6-histidine tagged enzyme. An excerpt:
hAMCase, engineered with a C-terminal 6-histidine tag, was purified to a single band on SDS-PAGE from a stable CHO cell line transfected with cDNA encoding this hAMCase construct by nickel chromatography. Similarly, mNC, engineered with a C-terminal 6-histidine tag, was purified to a single band on an SDS-PAGE from COS cells transfected with cDNA encoding this mNC construct by nickel chromatography. The enzymatic activity of recombinant hAMCase to mNC was compared, as follows.

Data set [4] can be described thus: chitinase kcat and Km determination, hydrolysis of chitobiose-4MU. It is filed as biochemical. Particulars: for chitobioside-4MU substrate concentration showing substrate inhibition / apparent transglycosylation: hAMCase 1 nM, mNC 0.25 nM. How it is done: Km and Kcat values for hAMCase and mNC. To better understand the mechanism for the increased specific activity of mNC compared to hAMCase, we measured the km and kcat for each enzyme. The progress curves of hAMCase (1 nM) hydrolysis reactions for 4MU product formation were linear during the first 10 min. for chitobioside-4MU substrate concentrations between 0 to 75 μM (data not shown). The rate of product formation was slower at the highest substrate concentration tested, 150 μM, compared to 75 μM, reflecting substrate inhibition due to transglycosylation, consistent with a previous report (Chou et al. (2006) Biochemistry 45, 4444-4454). We confirmed the high substrate concentration was not due to inner filter effect. In separate control experiments, the 4MU fluorescent signal was not quenched by chitobiose-4MU up to 600 μM.
The initial rates within the first 10 min. of hAMCase (1 nM) or mNC (0.25 nM) were plotted against the concentration of chitobiose-4MU that were in the linear range for both enzymes. […] The same Km and Kcat values for each enzyme were obtained from Line-weaver Burke plots of the linear curves.

Data set [5] can be described thus: relative specific activity of purified chitinases. Particulars: 5 μM chitobiose-4MU, 0.1 M citrate phosphate. It is filed as biochemical. The method, then: As shown in FIGS. 15A-15D, further characterization of the purified mNC was performed by measuring the relative specific activity, pH profiling, and inhibition by an art-recognized chitinase inhibitor, methylallosamidin. Briefly, various concentrations of mNC, ranging from 0.156 nM to 5 nM, or hAMCase, ranging from 1.56 nM to 50 nM, were incubated with 5 μM chitobiose-4MU substrate in 0.1 M citrate phosphate, 0.0005% Brij35 buffer. The relative specific activity of each enzyme was then determined by measuring the initial rate of enzyme activity versus the enzyme concentration.

The target of the next data set is T1, hAMCase (Homo sapiens, UniProt Q9BZP6).
T1 construct: 6-histidine tag (C); made in house
Put plainly: methylallosamidin inhibition of hAMCase, chitobiose-4MU substrate. Type of data set: biochemical. Conditions: 2 nM hAMCase, 5 μM chitobiose-4MU. How it is done: (§1) Analysis of hAMCase and mNC inhibition by methylallosamidin was performed by incubating various concentrations of methylallosamidin with 2 nM mNC or 2 nM hAMCase for 10 minutes prior to the addition of 5 μM chitobiose-4MU substrate. Maximal activity was determined by the initial rate of the enzyme activity without the inhibitor methylallosamidin. The percentage of enzyme activity was then calculated and plotted for each concentration of methylallosamidin compared to maximal activity. For the data shown in FIGS. 15C and 15D, the maximal initial rate (RFU/sec) is 1.1 for hAMCase and 21.0 for mNC. […] Conversely, 10 times more methylallosaminidin was required to inhibit mNC than hAMCase.

A further data set has as its system mNC. Put plainly: methylallosamidin inhibition of mNC, chitobiose-4MU substrate. It is filed as biochemical, cynomolgus monkey. How it is done:
as §1

A short description of data set [6]: chitinase enzyme assay in conditioned media of transfected COS cells. Type of data set: biochemical. The method, then: Enzymatic activity assays were performed using cloned mNC, engineered hNC (stop codon substituted to allow for translation of full protein), engineered mut-hNC (truncated), and cloned hAMCase in COS cells. The full length mNC construct was expressed and the chitinase activity of the resultant gene products was measured.
Cultured conditions were as follows: COS cells were cultured in DME media and were transfected at 90% confluency using TransIT®-LT1 transfection reagent (MIRUS). 24 hours post transfection, cell culture media was replaced with serum-free R1CD1 media. Conditioned media, containing secreted enzyme, was collected 48 hours later. Chitinase enzyme assays were performed directly from these samples, as follows.

[7] abbreviates: Table 1, pH 5.0 citrate phosphate buffer.
[8] abbreviates: Table 1, pH 5.0 citrate phosphate buffer, read-out: Km.
Where [9] appears, read: text, Michaelis-Menten fit, hAMCase 1 nM or mNC 0.25 nM, read-out: Km app.

Several values for one entry are separate records, joined by “and”; a condition that tells them apart may be missing. Identical values can stand only once.

T1 sequence (Q9BZP6 22-476 N45D/D47N/R61M/I339V/F354S/V432G): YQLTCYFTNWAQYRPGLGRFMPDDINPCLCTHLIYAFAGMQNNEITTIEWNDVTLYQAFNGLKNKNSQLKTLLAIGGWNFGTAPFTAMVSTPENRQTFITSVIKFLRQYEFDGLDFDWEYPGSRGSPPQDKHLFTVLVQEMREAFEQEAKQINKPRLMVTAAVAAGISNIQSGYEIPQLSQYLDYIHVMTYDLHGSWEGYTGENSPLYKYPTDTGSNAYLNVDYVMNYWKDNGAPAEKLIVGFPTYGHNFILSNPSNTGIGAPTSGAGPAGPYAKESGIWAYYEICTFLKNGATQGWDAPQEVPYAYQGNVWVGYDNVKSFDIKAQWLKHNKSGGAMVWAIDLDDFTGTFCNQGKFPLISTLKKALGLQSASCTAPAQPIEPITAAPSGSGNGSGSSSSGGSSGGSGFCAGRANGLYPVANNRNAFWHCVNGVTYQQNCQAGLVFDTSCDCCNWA

As usually defined, the Km is the concentration of substrate that gives half-maximal velocity. For the compound “hAMCase: human Acidic Mammalian Chitinase, SEQ ID NO:29”, the chitin hydrolysis entry in data set [1] was “generated soluble chitin oligomers”. Moreover, the “activity at lower pH values” in data set [2] was “lower activity, but retain significant activity”. Also, the “pH of maximal activity” value in data set [2] worked out at 5.0. For the same compound, the “slope of the initial rate at the various enzyme concentrations at maximal activity” value in data set [2] was 0.45. Also, the Km in data set [3] was 20 µM; in data set [4] (setting [8]), 42 ± 6 µM; in data set [4] (text, Michaelis-Menten fit, hAMCase 1 nM or mNC 0.25 nM, listed as AMCase, read-out: Km app), 42 µM; in data set [4] (setting [9]), about 42 µM. For the same compound, the kcat was 3.0 ± .35 s − 1 in data set [4] (setting [7]); “about 3 s^−1” in data set [4] (summary text b32); 3.0+/−0.35 in data set [4] (text b472, unit not given). Also, the “chitobioside-4MU substrate concentration showing substrate inhibition / apparent transglycosylation” value in data set [4] was 150 µM. In data set [5], this compound registered a relative specific activity of 0.4 units/sec/nM.
What is called IC50 is the concentration that inhibits the measured activity by half. A higher IC50 goes with a need for much substance. Regarding `COC[C@H]1O[C@@H](O[C@H]2[C@@H](O)[C@@H](NC(C)=O)[C@H](OC3C(O)C4N=C(N(C)C)OC4C3CO)O[C@@H]2CO)[C@H](NC(C)=O)[C@H](O)[C@@H]1O` (some centres unmarked) [methylallosamidin], the “inhibition of hAMCase with increasing concentrations of methylallosamidin” value at hAMCase is listed as “dose-dependent inhibition”. In addition, the IC50 against hAMCase (10 minutes preincubation) was determined as 0.0055 µM; in the data set with mNC (2 nM mNC, 10 minutes preincubation, 5 μM chitobiose-4MU), 0.058 µM. In addition, the “inhibition of mNC with increasing concentrations of methylallosamidin” value in the data set on mNC (2 nM mNC, 5 μM chitobiose-4MU) is “dose-dependent inhibition”. The “amount of inhibitor required to inhibit mNC relative to hAMCase” value in the data set on mNC (mNC versus hAMCase) turned out to be 10 times.
For “mNC: macaque novel chitinase cloned from cynomolgus monkey, SEQ ID NO:2”, the chitin hydrolysis entry in data set [1] was “generated soluble chitin oligomers”. Also, in data set [2], the “activity at lower pH values” is “lower activity, but retain significant activity”. Also, the “pH of maximal activity” value in data set [2] amounted to 5.0. Further, the “slope of the initial rate at the various enzyme concentrations at maximal activity” value in data set [2] came to 13.1. The “enzymatic (chitinase) activity” value in data set [6] is “significant enzymatic activity”. Moreover, the “lower apparent Km for chitobiose-4MU compared to hAMCase” value in data set [3] (mNC versus hAMCase) came out at 10 fold. In addition, the Km in data set [3] was 2 µM; in data set [4] (setting [8]) it was 6 ± 1 µM; in data set [4] (setting [9]), ~6 µM and 6 µM. Further, the kcat in data set [4] (setting [7]) is 31.8 ± 3.2 s − 1; in data set [4] (summary text b32), “about 32 s^−1”; in data set [4] (text b472, unit not given), 31.8+/−3.2. In data set [4], the “chitobioside-4MU substrate concentration showing substrate inhibition / apparent transglycosylation” value is at least 37 µM. Further, in data set [5], the relative specific activity was determined as 14.4 units/sec/nM.

These data come from patent US20090010942A1, “NOVEL PRIMATE CHITINASES AND USES THEREFOR” (WYETH, priority 2007, published 2009).
